Source: IntAct's records for PubMed 19130088

B1: Calcium-dependent protein kinase 4 (Arabidopsis thaliana (Mouse-ear cress)), Q38869 (parent)
chain: MEKPNPRRPSNSVLPYETPRLRDHYLLGKKLGQGQFGTTYLCTEKSSSANYACKSIPKRKLVCREDYEDVWREIQIMHHLSEHPNVVRIKGTYEDSVFVHIVMEVCEGGELFDRIVSKGCFSEREAAKLIKTILGVVEACHSLGVMHRDLKPENFLFDSPSDDAKLKATDFGLSVFYKPGQYLYDVVGSPYYVAPEVLKKCYGPEIDVWSAGVILYILLSGVPPFWAETESGIFRQILQGKIDFKSDPWPTISEGAKDLIYKMLDRSPKKRISAHEALCHPWIVDEHAAPDKPLDPAVLSRLKQFSQMNKIKKMALRVIAERLSEEEIGGLKELFKMIDTDNSGTITFEELKAGLKRVGSELMESEIKSLMDAADIDNSGTIDYGEFLAATLHINKMEREENLVVAFSYFDKDGSGYITIDELQQACTEFGLCDTPLDDMIKEIDLDNDGKIDFSEFTAMMKKGDGVGRSRTMRNNLNFNIAEAFGVEDTSSTAKSDDSPK
partner: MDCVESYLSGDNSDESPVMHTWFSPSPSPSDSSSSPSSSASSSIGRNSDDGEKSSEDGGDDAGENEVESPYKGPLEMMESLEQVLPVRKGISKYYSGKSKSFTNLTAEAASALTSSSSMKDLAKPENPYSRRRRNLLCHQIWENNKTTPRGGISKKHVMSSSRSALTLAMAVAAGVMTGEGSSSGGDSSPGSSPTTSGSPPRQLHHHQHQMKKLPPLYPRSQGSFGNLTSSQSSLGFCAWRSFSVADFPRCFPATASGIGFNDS

Variants of: B1
Conditions: with o3l1_arath O3L1, Q9C593

Effect of a mutation on the interaction, disrupting interaction:
D149A;F305A
D170A
D149A
D170A;F305A
